The record followed here is publication PMC11323955.

This assay has as its target MBP-MlCYC2A (M. lewisii). As to the kind of experiment: SPR. A general note: In SPR one partner is held on a chip, and binding of the other changes the refractive index at the surface.

For GST-MlBOP (natural protein), the equilibrium dissociation constant (Kd) (commonly the constant that tells how readily two partners part at equilibrium) turned out to be 1440 nM.

Substance “GST-bop-1 (GST-tagged MlBOP with the H39L point mutation) (natural protein)” had a dissociation constant (Kd) of 968 nM.
